PMC8932917

Target: Biotinylated FcγRIIIa (human) (UniProt P08637)
Assay: BLI

Sequence of UniProt P08637 (P08637 21-186): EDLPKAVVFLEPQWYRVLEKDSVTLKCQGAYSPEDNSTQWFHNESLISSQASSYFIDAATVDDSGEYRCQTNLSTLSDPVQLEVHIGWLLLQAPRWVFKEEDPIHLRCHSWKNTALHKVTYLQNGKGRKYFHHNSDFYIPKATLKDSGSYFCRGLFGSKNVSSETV

fold larger kon than Ada: 3.5 fold
fold larger kon than Rtx: 4 fold
fold lower KD than Ada: > 20 fold
fold lower KD than Rtx: > 20 fold
fold smaller koff than Ada: 6 fold
fold smaller koff than Rtx: 5 fold
Substance: Mogamulizumab, anti-CCR4 humanized IgG1 (antibody)
